The target in this experiment is GLP-1 receptor on RIN-m5F rat insulinoma cells (Rat) (UniProt P32301). As to the kind of experiment: cell-based or functional assay.

In vitro titer (%): cAMP EC50 in RIN-m5F cells, relative to exendin-4 data for two substances are collected here from US20100105877A1.

In turn, DA GLP-1(Lys20, 28)-PEG-Fc displayed an In vitro titer (%): cAMP EC50 in RIN-m5F cells, relative to exendin-4 of 2%. Turning to Ser12 DA exendin-4(Lys27)-PEG-Fc, the In vitro titer (%): cAMP EC50 in RIN-m5F cells, relative to exendin-4 came out at 2.6%.
